Assay results reported in patent publication US10689452 (UNIVERSIT T STUTTGART, dated 2020).
Numbering of substitutions follows the chain as printed.

T1: human TNFR1-Fc fusion protein (human, UniProt P19438 29-211)
T1 construct: range 29-211; Made in stably transfected HEK293 cells; coated on ELISA plates or immobilised on QCM chips; also called huTNFR1-Fc; human TNFR-Fc; not shown: Fc part from vector pSecTagL1-Fc
T1 sequence (looked up): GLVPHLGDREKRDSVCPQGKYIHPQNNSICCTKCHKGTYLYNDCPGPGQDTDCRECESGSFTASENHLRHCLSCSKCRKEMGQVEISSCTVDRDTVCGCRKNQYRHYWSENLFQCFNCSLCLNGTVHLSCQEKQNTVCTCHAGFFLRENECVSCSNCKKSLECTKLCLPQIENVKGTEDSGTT

T2: human TNFR1 on cells (HT1080, HeLa, Kym-1) (human, UniProt P19438 30-455)
T2 sequence (looked up): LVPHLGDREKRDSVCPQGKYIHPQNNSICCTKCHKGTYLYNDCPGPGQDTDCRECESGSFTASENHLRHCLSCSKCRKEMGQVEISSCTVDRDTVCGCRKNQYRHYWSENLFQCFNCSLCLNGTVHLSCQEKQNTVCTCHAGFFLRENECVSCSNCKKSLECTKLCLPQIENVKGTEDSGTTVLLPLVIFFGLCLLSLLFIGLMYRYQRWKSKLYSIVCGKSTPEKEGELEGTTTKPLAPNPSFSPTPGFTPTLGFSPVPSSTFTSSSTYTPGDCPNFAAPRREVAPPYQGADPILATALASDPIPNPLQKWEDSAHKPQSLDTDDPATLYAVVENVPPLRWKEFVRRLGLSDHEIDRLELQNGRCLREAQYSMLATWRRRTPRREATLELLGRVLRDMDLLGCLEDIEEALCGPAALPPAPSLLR

T3: mouse TNFR1-Fc fusion protein (mouse, UniProt P25118 30-212)
T3 construct: range 30-212; also called moR1; not shown: Fc part from vector pSecTagL1-Fc
T3 sequence (looked up): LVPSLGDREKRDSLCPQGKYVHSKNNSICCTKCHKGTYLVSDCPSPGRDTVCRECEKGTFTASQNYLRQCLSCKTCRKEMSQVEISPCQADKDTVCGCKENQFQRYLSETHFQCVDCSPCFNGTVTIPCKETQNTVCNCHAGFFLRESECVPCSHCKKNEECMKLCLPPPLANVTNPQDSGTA

T4: mouse TNFR2-Fc fusion protein (mouse, UniProt P25119 23-258)
T4 construct: range 23-258; not shown: Fc part from vector pSecTagL1-Fc
T4 sequence (looked up): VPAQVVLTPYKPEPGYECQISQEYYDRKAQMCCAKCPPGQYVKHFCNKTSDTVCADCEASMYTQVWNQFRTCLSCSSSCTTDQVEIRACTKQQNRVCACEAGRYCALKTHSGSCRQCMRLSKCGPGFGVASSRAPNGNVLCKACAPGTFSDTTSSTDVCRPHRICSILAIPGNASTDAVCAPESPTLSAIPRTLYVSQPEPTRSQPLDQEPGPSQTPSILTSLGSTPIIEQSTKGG

T5: human TNFR2-Fc fusion protein (human, UniProt P20333 23-257)
T5 construct: whole entry named; also called huTNFR2
T5 sequence (looked up): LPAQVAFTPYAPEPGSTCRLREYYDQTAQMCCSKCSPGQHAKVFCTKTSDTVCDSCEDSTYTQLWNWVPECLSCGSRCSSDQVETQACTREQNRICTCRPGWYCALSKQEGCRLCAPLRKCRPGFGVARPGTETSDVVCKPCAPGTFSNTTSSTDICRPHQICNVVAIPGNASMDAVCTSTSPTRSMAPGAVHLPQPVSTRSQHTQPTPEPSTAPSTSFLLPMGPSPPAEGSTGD

B1: FabATROSAB (Fab, V domains shown)
VH: QVQLVQSGAEVKKPGSSVKVSCKASGYTFTDFYINWVRQAPGQGLEWIGEIYPYSGHAYYNEKFKARVTITADKSTSTAYMELSSLRSEDTAVYYCARWDFLDYWGQGTTVTVSS
VL: DIVMTQSPLSLPVTPGEPASISCRSSQSLLHSNGNTYLHWYLQKPGQSPQLLIYTVSNRFSGVPDRFSGSGSGTDFTLKISRVEAEDVGVYYCSQSTHVPYTFGGGTKVEIKR
notes: Fab of ATROSAB; also called Fab fragment of ATROSAB; ATROSAB Fab
B2: Fab13.7 (Fab, V domains shown)
VH: B1 VH with Q1H, Y52V, Y54S, S55Q, H57E, Y59K, E62D
VL: DVQMTQSPSSLSASVGDRVTITCRSSQSLLHSNGNTYLHWYQQKPGKAPKLLIYTVSNRFSGVPSRFSGSGSGTDFTLTISSLQPEDFATYYCSQSTHVPYTFGGGTKVEIKR
notes: also called Fab-FRK13.7; Fab3.7
B3: IgG13.7 (antibody, V domains shown)
VH: B1 VH with Q1H, Y52V, Y54S, S55Q, H57E, Y59K, E62D
VL: DVQMTQSPSSLSASVGDRVTITCRSSQSLLHSNGNTYLHWYQQKPGKAPKLLIYTVSNRFSGVPSRFSGSGSGTDFTLTISSLQPEDFATYYCSQSTHVPYTFGGGTKVEIK
notes: Made transiently in HEK293T cells; also called IgG-FRK13.7

Columns and labels:
[1] = molecular target: T1, human TNFR1-Fc fusion protein; test: ELISA on coated huTNFR1-Fc, antibody titrated, signal as Binding [%]
Protocol: FIG. 13. […] Increasing concentrations were tested for their binding to huTNFR1-Fc in ELISA (n=3, mean±SD).
(§1) Microtiter plates were coated with 100 µl of the indicated protein (1 µg/ml in PBS, see Table 3.3) and incubated at 4° C. over night. The residual binding sites were blocked with 2% MPBS (skim milk in PBS, 200 µl per well) at room temperature for 2 hours and subsequently washed twice with PBS. 100 µl of the samples diluted in 2% MPBS were incubated at room temperature for 1 hour prior to the last incubation step with 100 µl of the HRP conjugated detection antibodies in 2% MPBS. In the case of competition experiments, both analyzed protein samples were prepared individually (either titrated or diluted to a single concentration) and mixed before they were applied to the plate. Bound protein was detected with 100 µl TMB substrate solution, the HRP-reaction was stopped by the addition of 50 µl 1 M H2SO4 and the absorption at the wavelength of 450 nm was measured using the Infinite microtiter plate reader (TECAN, Maennedorf, Switzerland). Between each incubation step and in advance of the detection, the plates were washed three times with PBST and twice with PBS.

[2] = molecular target: T2, human TNFR1 on cells (HT1080, HeLa, …); test: cell-based or functional assay
[3] = molecular target: T3, mouse TNFR1-Fc fusion protein; test: ELISA on coated receptor-Fc fusion proteins, one antibody concentration (not given on the sheet)
Protocol: (§2) FIG. 12. Species selectivity of scFv13.7 derivatives. […] Presented are mean and SD of two individual experiments.
as §1

[4] = molecular target: T4, mouse TNFR2-Fc fusion protein; test: as above
Protocol: as §2, §1

[5] = molecular target: T5, human TNFR2-Fc fusion protein; test: as above
Protocol: as §2, §1

[6] = molecular target: T1, human TNFR1-Fc fusion protein; test: QCM, human TNFR1-Fc, moderate receptor density (86 Hz), kon1
Protocol: (§3) Real-time binding dynamics in protein-protein interactions were determined by quartz crystal microbalance measurements (A-100 C-Fast or Cell-200 C-Fast, Attana, Stockholm, Sweden). One of the binding partners (ligand, e.g. TNFR1-Fc) was chemically immobilized on a carboxyl sensor chip according to the manufacturer's protocol at different densities (nearly 200 Hz in the case of saturating conditions to confirm previously published results and 50-100 Hz, in particular at about 50 Hz, to establish conditions of lower receptor density, better resembling the situation on the cellular surface). Binding experiments were performed with samples (analyte) diluted in PBST (PBS, 0.1% Tween 20) at pH 7.4 with a flow rate of 25 µl/min at 37° C. The chip was regenerated with 25 µl 5 mM NaOH or 20 mM glycine, pH 2.0. Every third measurement, an injection of running buffer was measured which was subtracted from the binding curve. Data were collected using the software provided by Attana for the particular device and analyzed by Attaché Office Evaluation software (Attana, Stockholm, Sweden) and TraceDrawe (ridgview instruments, Vange, Sweden).

[7] = molecular target: T1, human TNFR1-Fc fusion protein; test: ELISA, human TNFR1-Fc
[8] = molecular target: T1, human TNFR1-Fc fusion protein; test: QCM, human TNFR1-Fc, moderate receptor density (86 Hz), koff1
Protocol: as §3

[9] = molecular target: T1, human TNFR1-Fc fusion protein; test: QCM, human TNFR1-Fc, moderate receptor density (86 Hz), KD1
Protocol: as §3

[10] = molecular target: T1, human TNFR1-Fc fusion protein; test: QCM, moderate receptor density (86 Hz)
Protocol: as §3

[11] = molecular target: T2, human TNFR1 on cells (HT1080, HeLa, …); test: cell-based or functional assay; remark: listed apart in the source
[12] = molecular target: T1, human TNFR1-Fc fusion protein; test: ELISA on coated human TNFR1-Fc, reference curve next to Fv13.7-Fckih0DS
Protocol: as §1

[13] = molecular target: T1, human TNFR1-Fc fusion protein; test: ELISA on coated human TNFR1-Fc, reference curve next to Fab13.7PEG
Protocol: as §1

[14] = molecular target: T1, human TNFR1-Fc fusion protein; test: QCM, human TNFR1-Fc, high receptor density (184 Hz), OneToOne analysis, KD2
Protocol: as §3, with “curve.” for “curve. Data were collected using the software provided by Attana for the particular device and analyzed by Attaché Office Evaluation software (Attana, Stockholm, Sweden) and TraceDrawe (ridgview instruments, Vange, Sweden).”

[15] = molecular target: T1, human TNFR1-Fc fusion protein; test: QCM, human TNFR1-Fc, high receptor density (184 Hz), OneToOne analysis, koff2
Protocol: as §3, with “curve.” for “curve. Data were collected using the software provided by Attana for the particular device and analyzed by Attaché Office Evaluation software (Attana, Stockholm, Sweden) and TraceDrawe (ridgview instruments, Vange, Sweden).”

[16] = molecular target: T1, human TNFR1-Fc fusion protein; test: QCM, human TNFR1-Fc, high receptor density (184 Hz), OneToOne analysis, kon2
Protocol: as §3, with “curve.” for “curve. Data were collected using the software provided by Attana for the particular device and analyzed by Attaché Office Evaluation software (Attana, Stockholm, Sweden) and TraceDrawe (ridgview instruments, Vange, Sweden).”

[17] = molecular target: T1, human TNFR1-Fc fusion protein; test: QCM

Binder | IC50, Cytotox (nM); inhibition of Kym-1 cell death by 0.01 nM TNF [2] | IC50, IL-6 (nM); inhibition of the response of HeLa cells to 0.1 nM TNF [2] | IC50, IL-8 (nM); inhibition of the response of HT1080 cells to 0.1 nM TNF [2] | IL-6 release (pg/ml), HeLa cells [2] | IL-8 release (pg/ml), HT1080 cells [2] | kon [6] | koff [8] | Kd [9] | EC50 [7] | also measured
B1 | 37 nM | 145 nM | 151 nM | 179 pg/mL | 128 pg/mL | 501000 M⁻¹ s⁻¹ | 0.015 s⁻¹ | 30 nM |  | EC50 (read off the curve) [1]: ~10 nM; binding result [3]: no binding; binding result [4]: no binding; binding result [5]: no binding; fold weaker binding (higher EC50) compared with Fab13.7 [7]: 8.7 fold
B2 | 4.7 nM | 31 nM | 19 nM | 101 pg/mL | 138 pg/mL | 470000 M⁻¹ s⁻¹ | 0.000732 s⁻¹ | 1.6 nM | 1.4 nM | fold stronger affinity than FabATR [10]: 19 fold; IC50 (read off the curve), inhibition of the interleukin release induced by 0.1 nM TNF (axis: IL-6 release [%]) [11]: ~20 nM; EC50 (read off the curve) [12]: ~0.6 nM; EC50 (read off the curve) [13]: ~2 nM
B3 |  |  |  | 1450 pg/mL | 4230 pg/mL |  |  |  | 0.76 nM | Kd [14]: 0.11 nM; koff [15]: 5.92e-05 s⁻¹; kon [16]: 535000 M⁻¹ s⁻¹; fold improvement of KD compared with ATROSAB (bivalent binding) [17]: 3.5 fold
